{"source": "paper PMC2655680", "about": "(Nucleic Acids Research, 2009)", "target": "full-length human PNK (human, UniProt Q96T60 1-521)", "experiment": "ITC", "note": "Non-standard residues stand in square brackets, D forms with d. No end group written: not given here. pT = C[C@@H](OP(=O)(O)O)[C@H](N)C(=O)O; pS = N[C@@H](COP(=O)(O)O)C(=O)O"}
{"binder": "YAG[pS][pT]DEN[pT]D[pS]E", "note": "[XRCC1 peptide YAGpSpTDENpTDpSE, phosphorylated on Ser518, Thr519, Thr523 and Ser525]", "values": [{"measurement": "stoichiometry N", "result": 0.49}]}
{"binder": "YAG[pS][pT]DENTDSE", "note": "[XRCC1 peptide YAGpSpTDENTDSE, phosphorylated on Ser518 and Thr519]", "values": [{"measurement": "stoichiometry N", "result": 0.61}]}
